Data reported in the supplement of paper PMC10567573.
± gives the standard deviation.

Assay: protein stability index of a GFP-peptide fusion (GPS, HEK-293T) (PSI 1-6); higher = more stable
[1] = treatment: DMSO, c terminus: a fixed tail appended
[2] = treatment: MLN4924 1 uM, 8 h, c terminus: a fixed tail appended
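Note: 24-mer peptide tiles fused after GFP, lentivirally expressed, FACS-sorted into six equal bins by GFP/DsRed ratio, decoded by Illumina sequencing, PSI is the read-weighted mean bin number.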

Sequence	protein stability index [1]	protein stability index [2]	protein stability index (treatment: DMSO, c terminus: native)	protein stability index (treatment: MLN4924 1 uM, 8 h, c terminus: native)
LSSSIIHEIDSILGNKPYSKKDYR [KCNAB2]	2.65 ± 0.26	3.24 ± 0.45		
HIFAHRIYLATSSSKFYDLFLMEC [RHOBTB1]	3.07 ± 0.6	2.38 ± 0.49		
YESTLFEDQVPALEAPEDIGSTSE [MIA2]	5.55 ± 0.23	5.51 ± 0.33		
AVNRARRPLARPIKRGDILPPEKG [RHOBTB1]	3.66 ± 0.23	3.77 ± 0.33		
YQGPGTRRLQEVLGVQTGGPGGRR [DYRK1B]	3.59 ± 0.39	3.94 ± 0.36		
WWALSTCGYFQVVNYTQGLWEKVM [SLC19A2]	2.75 ± 1.3	2.45 ± 0.73		
PSNSSSLTLSGIKEDNSLLNQGFL [MYBL2]	3.57 ± 0.35	3.81 ± 0.45		
EQVFSLGDGVSGGFFGIRDSSFL [ZBED1]			3.36 ± 0.31	3.61 ± 0.27
DDFFRHESGEHFRSLLGYDPQILQ [RAD54B]	3.44 ± 0.22	3.29 ± 0.26		
QRGALPAPDPELAAEMYQRGRAVL [RSAD1]	4.36 ± 0.18	4.38 ± 0.17		
RSRYDGHRIWMYNCHIGGSFSEET [LOXL2]	2.17 ± 0.35	2.72 ± 0.35		
FLVFILNAGLVWFFPWREAKPGST [MFSD9]	3.21 ± 0.74	3.11 ± 0.19		
VSRRAAAAAATVLLRTARVRRECW [SLC19A2]	2.58 ± 0.17	2.99 ± 0.36		
RAKDFLPADIQAQFAISRELIRNI [SNX8]	2.38 ± 0.18	2.48 ± 0.24		
KVSQWWERLTKQEKRPLFLAPDFD [HACD3]	2.34 ± 0.31	2.55 ± 0.089		
TCAPSVSYFKCVQKEVLPSMRKIV [CCND1]	2.33 ± 0.13	2.35 ± 0.33		
DEQLNEFHCLWDDSFPEGPERLHA [HDAC6]	4.55 ± 0.3	4.46 ± 0.35		
VRVLESLLVSLVTTVVVFVASMVL [CLCN6]	3.13 ± 0.4	3.3 ± 0.34		
RVRKEAMMGLAQIYKKYALQSAAG [PDS5B]	2.2 ± 0.37	2.14 ± 0.34		
TVSIMEPGETRRNSYPRADTGLFS [TRIM29]	3.81 ± 0.2	3.64 ± 0.37		
VDGRHLLRTLSRAKFWPRRRFNFF [DNAAF3]	1.92 ± 0.23	2.17 ± 0.11		
ICLEMFTKPVVILPCQHNLCRKCA [TRIM63]	2.2 ± 0.054	2.41 ± 0.13		

Sequence	protein stability index [1]	protein stability index [2]	protein stability index (treatment: DMSO, c terminus: native)	protein stability index (treatment: MLN4924 1 uM, 8 h, c terminus: native)
GKIIGGMWRDLTDEEKQEYLNEYE [SMARCE1]	4.56 ± 0.14	4.64 ± 0.27		
PHLPRVMLPGVLAGVSAEESWAGP [SCNN1D]	3.37 ± 0.34	3.4 ± 0.24		
LIVGRIAIGVSISLSSIATCVYIA [SLC2A12]	3.09 ± 0.45	3.01 ± 0.39		
EEWLLVGTKQGHLLLYRIRKDVGC [VPS39]	3.08 ± 1.3	2.48 ± 0.5		
DINLNSPNKGLLSDSMTDVPVDTG [TPD52L2]	4.19 ± 0.2	4.51 ± 0.22		
SSIECYDPIIDSWEVVTSMGTQRC [KLHL12]	2.95 ± 0.2	3.24 ± 0.49		
SDTYRCEERSPSFGEDYYGPSRSR [CLK3]	4.47 ± 0.12	4.52 ± 0.2		
LSAANVCLDPIIYFFLCQPFREIL [P2RY14]	3.28 ± 0.74	2.58 ± 0.77		
AALEEESRQRQSRMEKGEPYMSIQ [SMARCE1]	4.88 ± 0.34	4.88 ± 0.22		
PVVKKKGVKRKADTTTPTTSAITA [BRD3]	5.03 ± 0.29	5.01 ± 0.19		
LAKEIRVKAEPFIKWLKEAEEESS [EIF5]	3.33 ± 0.2	3.9 ± 0.52		
QLYTAYILENRPPGSLLCTVAASD [PCDHGC5]	2.11 ± 0.24	2.18 ± 0.26		
SLVWGMVCGQNWGIVEAMVVCRQL [LOXL2]	2.46 ± 0.82	3.07 ± 0.36		
PAATEAYGSGDTPGGPCDSTLGGD [TBX6]	5.46 ± 0.25	5.3 ± 0.55		
YSRYLNEKAFSYRQMAFDFARVKK [SNAP91]	2.28 ± 0.59	2.7 ± 0.16		
PFAFVEFEDPRDAEDAVYGRDGYD [SRSF1]	4.76 ± 0.15	4.64 ± 0.2		
IENRDVAKSVLKERGLKKIRLGIE [BTBD10]	3.36 ± 0.28	3.32 ± 0.13		
TTVPDGPTQLRALNLTEGFAVLHW [TNXB]	2.18 ± 0.098	2.05 ± 0.065		
ITIGYRVYHSYDLPWFRTLSWYFL [CDS1]	2.92 ± 0.42	3.1 ± 0.6		
NLFVMQVEMDIYTALKKWMFLQLV [GMCL1]	2.74 ± 0.66	2.17 ± 0.39		
VEESEASSSVSISHSASATGNVCI [LMNB1]	4.84 ± 0.11	4.71 ± 0.12		
RTPLHYAAANCHFHCIETLVTTGA [ANKRD44]	2.36 ± 0.57	2.44 ± 0.5		

Sequence	protein stability index [1]	protein stability index [2]	protein stability index (treatment: DMSO, c terminus: native)	protein stability index (treatment: MLN4924 1 uM, 8 h, c terminus: native)
TEKDLLEDGFGEHPFYHCLVAEVP [SAT1]	3.35 ± 0.32	3.41 ± 0.37		
VLGVADGVGGWRDYGVDPSQFSGT [PPTC7]	3.51 ± 0.24	4 ± 0.088		
EFVIIDCRYPYEYEGGHIKGAVNL [CDC25A]	2.47 ± 0.29	2.3 ± 0.43		
TPGGRGDMKYGIYAVENEHMNRLQ [VTI1B]	3.69 ± 0.33	3.55 ± 0.63		
QEAKLLHWNGRHKPWDFPSVHNDL [GLT8D2]	3.11 ± 0.19	2.9 ± 0.28		
TKKLRLTKPSKSAALHIDLCKATS [INTS4]	2.91 ± 0.17	3.13 ± 0.22		
QAQIDQYLGLVRTHINAVVAKIQA [RTN1]	2.08 ± 0.35	2.35 ± 0.28		
TYSLVPKKKTKVLKQRTVIEMFKS [EHMT1]	2.41 ± 0.21	2.58 ± 0.34		
MNNAQRIEKWVILEKDFSIYGGEL [ACSBG2]	2.2 ± 0.12	2.28 ± 0.57		
RDRLRSRLEALSTERDEIEDVKCQ [TRIM15]	5.32 ± 0.15	5.44 ± 0.35		
TPEPDTCHELLGHVPLLAEPSFAQ [TPH1]	3.96 ± 0.27	3.91 ± 0.2		
LLAIQFLEFFYGIATATEIAYYSY [SLC19A2]	2.92 ± 1.3	3.13 ± 0.23		
DPTGASIALFTARLHHPHKSVQHV [PTPN9]	2.37 ± 0.29	2.64 ± 0.23		
MNARGLGSELKDSIPVTELSASGP [POMP]	4.78 ± 0.34	4.62 ± 0.23		
VMDYLPISSTSTKRTYWPDLDAKI [PLD5]	2.77 ± 0.19	2.85 ± 0.1		
AGEGAEALARNLLVDGETGESFPA [NFE2L1]	5.37 ± 0.09	5.41 ± 0.21		
RVYVSGLMKGGADLFVENMPGFPD [APMAP]	2.56 ± 0.34	2.7 ± 0.35		
PLMVKGFRDAAEEGGTAVTGGQTV [SEPHS2]	5.05 ± 0.3	5.16 ± 0.13		
PKPAGGAIPTKKSLPSPSSSGHQN [FBF1]	4.98 ± 0.14	4.92 ± 0.17		
APRPGPPAGTPPPTARHFQEHPRQ [MOSPD3]	4.99 ± 0.36	4.86 ± 0.35		
EFFGSASQPAVELVSGSQSALGPP [CLINT1]	3.96 ± 0.11	3.92 ± 0.51		
